Data reported in patent US20050142135A1, “Agents and methods for modulating interactions between gonadotropin hormones and receptors” (University of Kentucky Research Foundation, priority 2003, published 2005).
Where a chain is given by its changes, count along the chain named.

B1: N^10A: human FSHR with Ala substituted for N10 (protein)
chain: CHHRICHCSARVFLCQESKVTEIPSDLPRNAIELRFVLTKLRVIQKGAFSGFGDLEKIEISQNDVLEVIEADVFSNLPKLHEIRIEKANNLLYINPEAFQNLPNLQYLLISNTGIKHLPDVHKIHSLQKVLLDIQDNINIHTIERNSFVGLSFESVILWLNKNGIQEIHNCAFNGTQLDELNLSDNNNLEELPNDVFHGASGPVILDISRTRIHSLPSYGLENLKKLRARSTYNLKKLPTLEKLVALMEASLTYPSHCCAFANWRRQISELHPICNKSILRQEVDYMTQARGQRSSLAEDNESSYSRGFDMTYTEFDYDLCNEVVDVTCSPKPDAFNPCEDIMGYNILRVLIWFISILAITGNIIVLVILTTSQYKLTVPRFLMCNLAFADLCIGIYLLLIASVDIHTKSQYHNYAIDWQTGAGCDAAGFFTVFASELSVYTLTAITLERWHTITHAMQLDCKVQLRHAASVMVMGWIFAFAAALFPIFGISSYMKVSICLPMDIDSPLSQLYVMSLLVLNVLAFVVICGCYIHIYLTVRNPNIVSSSSDTRIAKRMAMLIFTDFLCMAPISFFAISASLKVPLITVSKAKILLVLFHPINSCANPFLYAIFTKNFRRDFFILLSKCGCYEMQAQIYRTETSSTVHNTHPRNGHCSSAPRVTSGSTYILVPLSHLAQN
B2: L^583 F: human FSHR mutant, Phe for L583 (protein)
chain: B1 chain with A10N, L584F
B3: L^27A: human FSHR with Ala substituted for L27 (protein)
chain: B1 chain with A10N, L27A
B4: L^583 Q: human FSHR mutant, Gln for L583 (protein)
chain: B1 chain with A10N, L584Q
B5: wild type: wild type human FSH receptor expressed in HEK 293 cells (protein)
chain: B1 chain with A10N
B6: D^26A: human FSHR with Ala substituted for D26 (protein)
chain: B1 chain with A10N, D26A
B7: L^583 A: human FSHR exoloop 3 mutant, Ala for L583 (protein)
chain: B1 chain with A10N, L584A
B8: I^23A: human FSHR with Ala substituted for I23 (protein)
chain: B1 chain with A10N, I23A
B9: L^583 Y: human FSHR mutant, Tyr for L583 (protein)
chain: B1 chain with A10N, L584Y
B10: S^18A: human FSHR with Ala substituted for S18 (protein)
chain: B1 chain with A10N, S18A
B11: L^14A: human FSHR with Ala substituted for L14 (protein)
chain: B1 chain with A10N, L14A
B12: P^24A: human FSHR with Ala substituted for P24 (protein)
chain: B1 chain with A10N, P24A
B13: C^15A: human FSHR with Ala substituted for C15 (protein)
chain: B1 chain with A10N, C15A

Columns and labels:
human FSHR [1] = assay: FSH dependent intracellular cAMP assay, wild type and mutant FSHR in HEK 293 cells; format: cell-based; settings: for FSH dependent cAMP induction / EC50 compared with the wild type receptor, in words: HEK 293 cells
Experimental: (§1) Mutant FSHR cDNAs were prepared in the pSELECT vector using the Altered Sites Mutagenesis system (Promega), sequenced on a Beckman CEQ 2000XL capillary sequencer, subcloned into pcDNA3 (Invitrogen), and sequenced again to verify mutation sequences. […] Wild type and mutant receptor constructs were transfected into HEK 293 cells by the calcium phosphate method as previously described. Stable cell lines were established in minimum essential medium containing 10% horse serum and 500 μg/ml of G418. These cells were used for hormone binding, cAMP production. All assays were carried out in duplicate and repeated 4-5 times, and means±S.D. were calculated.
(§2) The Kd values were determined by Scatchard plots. For intracellular cAMP assay, cells were washed twice with Dulbecco's modified Eagle's medium and incubated in the medium containing 0.1 μg/ml isobutylmethylxanthine for 15 mm. Increasing concentrations of FSH were then added and incubation was continued for 45 mm at 37° C. After removing the medium, the cells were rinsed once with fresh medium without isobutylmethylxanthine, lysed in 70% ethanol, freeze-thawed in liquid nitrogen, and scraped.
(§3) Human FSH (the National Hormone and Pituitary Program) was radioiodinated as previously described for radioiodination of hCG. […] The Kd values were determined by Scatchard plots. Truncated exodomain was solubilized in Nonidet P-40 and assayed for hormone binding as described previously. For intracellular cAMP assay, cells were washed twice with Dulbecco's modified Eagle's media and incubated in the media containing isobutylmethylxanthine (0.1 mg/ml) for 15 minutes. Increasing concentrations of FSH were then added and the incubation was continued for 45 minutes at 37° C. After removing the media, the cells were rinsed once with fresh media without isobutylmethylxanthine, lysed in 70% ethanol, freeze-thawed in liquid nitrogen, and scraped. […] Exoloop 3 of FSHR was modeled based on the crystal structure of rhodopsin as a template.

human FSHR [2] = assay: ^125I-FSH binding to wild type and mutant FSH receptors on intact stably transfected HEK 293 cells; settings: for FSH binding / Kd compared with the wild type receptor, in words: intact HEK 293 cells
Experimental: as §1, §2
Each mutant human FSHR cDNA was prepared in a pSELECT vector using the non-PCR based Altered Sites Mutagenesis System (Promega), sequenced on a Beckman CEQ 2000XL capillary sequencer and subcloned into pcDNA3 (Invitrogen) as described. After subcloning pcDNA3 the mutant cDNAs were sequenced again. Plasmids were transfected into human embryonic kidney (HEK) 293 cells by the calcium phosphate method. Stable cell lines were established in minimum essential medium containing 10% horse serum and 500 μg/ml of G-418, and then used for hormone binding and cAMP assay. All assays were carried out in duplicate and repeated 4-6 times. Means and standard variations were calculated.
as §3

FSHR = assay: ^125I-FSH binding to solubilized FSHR (NP-40); design: species or system human; settings: solubilized mutant receptors
Experimental: Transfected cells were washed twice with ice cold 150 mM NaCl, 20 mM HEPES, pH 7.4 (buffer A). Cells were scraped on ice, collected in buffer A containing protease inhibitors (1 mM phenylmethylsulfonyl fluoride, 5 mM N-ethylmaleimide, and 10 mM EDTA), and pelleted by centrifugation at 1300×g for 10 minutes. Cells were resuspended in 0.6 ml of buffer A containing 1% NP-40, 20% glycerol, and the above protease inhibitors (buffer B), incubated on ice for 15 mm, and diluted with 5.4 ml of buffer A containing 20% glycerol plus the protease inhibitors (buffer C). The mixture was centrifuged at 100,000×g for 60 minutes. […] After incubation for 12 hours at 4° C., the solution was thoroughly mixed with 250 μl of buffer A containing bovine γ-globulin (5 μg/ml) and 750 μl of buffer A containing 20% polyethylene glycol 8000. After incubation for 10 minutes at 4° C., samples were pelleted at 1300×g for 30 mm and supernatants removed. Pellets were resuspended in 1.5 ml of buffer A containing 20% polyethylene glycol 8000, centrifuged, and counted for radioactivity.

human FSHR [3] = assay: Inositol phosphate assay, FSHR exoloop 3 mutants in HEK 293 cells, FSH stimulated; format: cell-based; settings: for IPt (CPM): total IP production in response to increasing concentrations of FSH, NS = not significant
Experimental: Stable cells were plated in 12 well plates and grown in inositol free DMEM (Atlanta Biologicals) supplemented with 8% heat-inactivated horse serum and 2 μCi/ml ^3H-inositol (N EN) for 48 h to 40-50% confluency. After removing the medium, the cells were incubated in 1 ml of fresh wash buffer consisting of DMEM without inositol and 15 mM HEPES (pH 7.3) for 1 hour at 37° C. This medium was removed and 0.3 ml wash buffer containing 20 mM LiCl was added and incubated for 15 minutes at 37° C. After the cells were stimulated with increasing concentrations of hormone for 30 minutes at 37° C., the incubation was terminated by the removal of medium and the addition of 0.25 ml of 0.6 N HCl to each well. The cells were scraped and transferred into microcentrifuge tubes, and the wells were again washed with 0.25 ml of 0.6 N HCl. The combined washes were treated with 0.9 ml of a mixture of chloroform:methanol (2:1), vortexed and centrifuged at 1000×g for 5 minutes at room temperature. The top aqueous layer, which was free of phospholipids, was removed and the remaining chloroform layer treated with 0.2 ml of methanol:water (1:1), vortexed and centrifuged. This aqueous layer was added to the previous aqueous layer and the samples dried in a vacuum concentrator. The dried samples were redissolved in 0.5 ml of 50 mM Tris-HCl, pH 8 and applied to Dowex AG 1-X8 formate (BIO-RAD) columns. The microcentrifuge tubes were washed twice with 0.5 ml of the same buffer and the washes applied to the columns for a total of 1.5 ml. The columns were sequentially washed with 4.5 ml H2O and 4.5 ml 60 mM ammonium formate and 5 mM sodium tetraborate to elute the free inositol and the glycerol phosphoinositol. IP1, IP2 and IP3 were sequentially eluted with 4 ml of 0.1 N formic acid in 0.2 M, 0.75 M ammonium formate and 1.1 M ammonium formate, respectively and collected in 1 ml fractions. Aliquots of 200 μl were counted for radioactivity in 1.5 ml of Ultima AF scintillation fluid (Packard). Peak radioactivities were used for the data analysis.
Target sequence in this assay (P23945 18-366 limits assumed): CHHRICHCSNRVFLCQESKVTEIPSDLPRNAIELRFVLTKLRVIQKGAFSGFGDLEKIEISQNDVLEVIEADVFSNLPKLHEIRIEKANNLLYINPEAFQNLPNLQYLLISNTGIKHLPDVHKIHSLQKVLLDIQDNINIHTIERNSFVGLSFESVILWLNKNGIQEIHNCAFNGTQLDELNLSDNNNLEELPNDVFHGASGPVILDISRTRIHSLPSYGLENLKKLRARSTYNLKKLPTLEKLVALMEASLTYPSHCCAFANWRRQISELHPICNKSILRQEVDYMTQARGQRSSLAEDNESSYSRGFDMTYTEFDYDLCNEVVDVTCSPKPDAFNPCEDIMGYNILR

| Molecule | FSH dependent cAMP induction / EC50 compared with the wild type receptor, in words (human FSHR [1]) | FSH binding / Kd compared with the wild type receptor, in words (human FSHR [2]) | FSH binding to receptors solubilized in NP-40 (FSHR) | also measured |
| --- | --- | --- | --- | --- |
| B1 | lower than the wild type value | improved hormone binding |  | FSH binding / Kd compared with the wild type receptor, in words (human FSHR [2]; listed as FSHR^N10A): lower than the wild type value |
| B2 | induced significant amounts of cAMP with reasonable EC50 values |  |  |  |
| B3 |  | completely abrogated hormone binding | did not bind |  |
| B4 | induced a marginal level of cAMP |  |  |  |
| B5 |  |  |  | IPt (CPM) (human FSHR [3]): 1,660 ± 240 CPM; Kd (human FSHR [2]; ^125I-FSH binding, Scatchard plots, HEK 293 cells): 4 nM |
| B6 |  | completely abrogated hormone binding | did not bind |  |
| B7 | did not produce cAMP |  |  |  |
| B8 |  |  |  | EC50 value of cAMP induction, fold higher than wild type (human FSHR [1]; FSH dependent cAMP): 23 fold; maximal cAMP level, fold lower than wild type (human FSHR [1]; FSH dependent cAMP): 2.6 fold |
| B9 | induced significant amounts of cAMP with reasonable EC50 values |  |  | IP induction (IP1, IP2, IP3, IPt) in response to FSH, in words (human FSHR [3]; HEK 293 cells): produced a small amount of IPt; IPt (CPM) (human FSHR [3]): 440 ± 17 CPM |
| B10 | considerably lower EC50 value | higher Kd value |  | reduction (improvement) of the EC50 value of cAMP induction compared with wild type (human FSHR [1]; FSH dependent cAMP): 3 fold |
| B11 | lower than the wild type value | improved hormone binding |  | FSH binding / Kd compared with the wild type receptor, in words (human FSHR [2]; listed as FSHR^L14A): lower than the wild type value |
| B12 |  | completely abrogated hormone binding | did not bind |  |
| B13 |  | abolished hormone binding | did not bind |  |
